# Laboratory results: publication PMC5261807 (2017)
# Non-standard residues stand in square brackets, D forms with d. No end group written: not given here. Arg(Me2a) = CN(C)C(=N)NCCC[C@H](N)C(=O)O; Lys(Me3) = C[N+](C)(C)CCCC[C@H](N)C(=O)O; Arg(Me2s) = CN=C(NC)NCCC[C@H](N)C(=O)O; pT = C[C@@H](OP(=O)(O)O)[C@H](N)C(=O)O; Lys(Me2) = CN(C)CCCC[C@H](N)C(=O)O; pS = N[C@@H](COP(=O)(O)O)C(=O)O; Lys(Me) = CNCCCC[C@H](N)C(=O)O
# T1: Bdf1 bromodomain 1 (GST-tagged, WT) (Saccharomyces cerevisiae (strain ATCC …, UniProt P35817))
# T1 chain: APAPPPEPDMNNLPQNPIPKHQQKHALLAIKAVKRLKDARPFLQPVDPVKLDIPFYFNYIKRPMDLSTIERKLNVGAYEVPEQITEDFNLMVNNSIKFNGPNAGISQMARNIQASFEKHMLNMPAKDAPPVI
# T2: Bdf1 bromodomain 2 (GST-tagged, WT) (Saccharomyces cerevisiae (strain ATCC …, UniProt P35817))
# T2 chain: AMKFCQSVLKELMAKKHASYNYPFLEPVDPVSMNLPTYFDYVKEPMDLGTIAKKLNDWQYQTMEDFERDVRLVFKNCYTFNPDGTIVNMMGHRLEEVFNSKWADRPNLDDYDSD
# Target: T1, Bdf1 bromodomain 1 (GST-tagged, WT)
# Assay: histone peptide array probed with recombinant GST-bromodomain, signal normalised to myc peptide control
row,Binder,binding score
1,ARTKQTARKSTGGKAPRKQ (A Rme2s T Kme1 Q T A Rme2a Kme2 S T G G K A P R K Q),0.00502
2,ARTKQTARKSTGGKAPRKQ (A Rme2s T Kme3 Q T A Rme2a Kme3 S T G G K A P R K Q),0.00681
3,A[Arg(Me2a)]T[Lys(Me2)]QTARKSTGGKAPRKQ,0.00161
4,SGRGK(Ac)QGGKARAKAKSRSS,0
5,ARTKQTARKSTGGKAPRKQ (A R T Kac Q T A Rme2a Kme3 S T G G K A P R K Q),0.0328
6,ARTKQTARKSTGGKAPRKQ (A R T Kme1 Q T A Rme2a Kme3 S T G G K A P R K Q),0.00179
7,ARTKQTARKSTGGKAPRKQ (A Rme2s pT Kme3 Q T A R K S T G G K A P R K Q),0.00538
8,ARTKQTA[Arg(Me2s)]K(Ac)S[pT]GGKAPRKQ,0.0118
9,ARTKQTARKSTGGKAPRKQ (A Rme2a T Kme3 Q T A Rme2a K S T G G K A P R K Q),0.0102
10,PRKQLATKAARK(Ac)[pS]APATGG,0
11,ARTKQTARKSTGGKAPRKQ (A R T Kme1 Q T A Rme2a Kme2 S T G G K A P R K Q),0.00699
12,ARTKQTARKSTGGKAPRKQ (A R T K Q T A Rme2s Kme3 S pT G G K A P R K Q),0
13,A[Arg(Me2s)]TK(Ac)QTA[Arg(Me2a)][Lys(Me3)]STGGKAPRKQ,0.0145
14,ART[Lys(Me2)]QTA[Arg(Me2a)][Lys(Me)]STGGKAPRKQ,0.000717
15,SGRGKGGKGLGKGGAKRHR (pS G Rme2a G Kac G G K G L G K G G A K R H R),0.00753
16,PDPAKSAPAPKKG[pS]K(Ac)KAVT,0.0142
17,ARTKQTARKSTGGKAPRKQ (A R T K Q T A R Kme2 S T G G K A P R K Q),0.00269
18,ARTKQTARKSTGGKAPRKQ (A R T Kme3 Q T A Rme2a Kac S T G G K A P R K Q),0.0142

# The next lines start with the values.
row,binding score,Binder
1,0.00825,PDPAKSAPAPKKGSK(Ac)KAVT
2,0,[pS]GRGKQGGK(Ac)ARAKAKSRSS
3,0,SGRGKGGKGLGKGGAKRHR (pS G Rme2a G K G G K G L G K G G A K R H R)
4,0,PRKQLATKAA[Arg(Me2s)][Lys(Me)]SAPATGG
5,0.00484,[pS]GRGKQGGKARAK(Ac)AKSRSS
6,0.0061,PRKQLATKAA[Arg(Me2s)]K(Ac)[pS]APATGG
7,0.0181,ARTKQTARKSTGGKAPRKQ (A Rme2a T Kme3 Q T A Rme2s Kac S T G G K A P R K Q)
8,0,SGRGKGGKGLGKGGAKRHR (S G Rme2s G Kac G G K G L G K G G A K R H R)
9,0,ARTKQTARKSTGGKAPRKQ (A Rme2a T Kme3 Q T A Rme2a Kme2 S T G G K A P R K Q)
10,0,ARTKQTARKSTGGKAPRKQ (A Rme2s T Kme1 Q T A R Kme3 S T G G K A P R K Q)
11,0.00663,PDPAK(Ac)SAPAPKK(Ac)G[pS]KKAVT
12,0.00968,SGRGKGGKGLGKGGAKRHR (pS G Rme2s G Kac G G K G L G K G G A K R H R)
13,0.00861,ARTKQTARKSTGGKAPRKQ (A Rme2s T Kme3 Q T A Rme2s K S T G G K A P R K Q)
14,0.00502,PDPAK(Ac)SAPAPKKGSKKAVT
15,0.00484,ARTKQTARKSTGGKAPRKQ (A R T K Q T A Rme2s Kac pS T G G K A P R K Q)
16,0.00448,A[Arg(Me2a)]T[Lys(Me)]QTA[Arg(Me2s)][Lys(Me2)]STGGKAPRKQ
17,0.0134,ARTKQTARKSTGGKAPRKQ (A Rme2s T Kme1 Q T A Rme2s Kme1 S T G G K A P R K Q)
18,0.0111,A[Arg(Me2s)]TKQTARKSTGGKAPRKQ
19,0.0043,ARTKQTA[Arg(Me2a)]K(Ac)S[pT]GGKAPRKQ
20,0.00897,A[Arg(Me2a)]TK(Ac)QTA[Arg(Me2a)][Lys(Me)]STGGKAPRKQ
21,0.0255,ARTKQTARKSTGGKAPRKQ (A Rme2a T Kac Q T A R Kme2 S T G G K A P R K Q)

# Target: T2, Bdf1 bromodomain 2 (GST-tagged, WT)
# Assay: as above
row,Binder,binding score
1,ARTKQTARKSTGGKAPRKQ (A Rme2s T Kme1 Q T A Rme2a Kme2 S T G G K A P R K Q),0
2,ARTKQTARKSTGGKAPRKQ (A Rme2s T Kme3 Q T A Rme2a Kme3 S T G G K A P R K Q),0.00108
3,A[Arg(Me2a)]T[Lys(Me2)]QTARKSTGGKAPRKQ,0
4,SGRGK(Ac)QGGKARAKAKSRSS,0.0459
5,ARTKQTARKSTGGKAPRKQ (A R T Kac Q T A Rme2a Kme3 S T G G K A P R K Q),0
6,ARTKQTARKSTGGKAPRKQ (A R T Kme1 Q T A Rme2a Kme3 S T G G K A P R K Q),0
7,ARTKQTARKSTGGKAPRKQ (A Rme2s pT Kme3 Q T A R K S T G G K A P R K Q),0.00895
8,ARTKQTA[Arg(Me2s)]K(Ac)S[pT]GGKAPRKQ,0.00679
9,ARTKQTARKSTGGKAPRKQ (A Rme2a T Kme3 Q T A Rme2a K S T G G K A P R K Q),0.00541
10,PRKQLATKAARK(Ac)[pS]APATGG,0
11,ARTKQTARKSTGGKAPRKQ (A R T Kme1 Q T A Rme2a Kme2 S T G G K A P R K Q),0.00738
12,ARTKQTARKSTGGKAPRKQ (A R T K Q T A Rme2s Kme3 S pT G G K A P R K Q),0.00561
13,A[Arg(Me2s)]TK(Ac)QTA[Arg(Me2a)][Lys(Me3)]STGGKAPRKQ,0.00836
14,ART[Lys(Me2)]QTA[Arg(Me2a)][Lys(Me)]STGGKAPRKQ,0
15,SGRGKGGKGLGKGGAKRHR (pS G Rme2a G Kac G G K G L G K G G A K R H R),0.0674
16,PDPAKSAPAPKKG[pS]K(Ac)KAVT,0.142
17,ARTKQTARKSTGGKAPRKQ (A R T K Q T A R Kme2 S T G G K A P R K Q),0.00679
18,ARTKQTARKSTGGKAPRKQ (A R T Kme3 Q T A Rme2a Kac S T G G K A P R K Q),0.0127

# Further lines, results first:
row,binding score,Binder
1,0,PDPAKSAPAPKKGSK(Ac)KAVT
2,0.00817,[pS]GRGKQGGK(Ac)ARAKAKSRSS
3,0,SGRGKGGKGLGKGGAKRHR (pS G Rme2a G K G G K G L G K G G A K R H R)
4,0,PRKQLATKAA[Arg(Me2s)][Lys(Me)]SAPATGG
5,0.0125,[pS]GRGKQGGKARAK(Ac)AKSRSS
6,0,PRKQLATKAA[Arg(Me2s)]K(Ac)[pS]APATGG
7,0.0261,ARTKQTARKSTGGKAPRKQ (A Rme2a T Kme3 Q T A Rme2s Kac S T G G K A P R K Q)
8,0.0652,SGRGKGGKGLGKGGAKRHR (S G Rme2s G Kac G G K G L G K G G A K R H R)
9,0,ARTKQTARKSTGGKAPRKQ (A Rme2a T Kme3 Q T A Rme2a Kme2 S T G G K A P R K Q)
10,0.000295,ARTKQTARKSTGGKAPRKQ (A Rme2s T Kme1 Q T A R Kme3 S T G G K A P R K Q)
11,0,PDPAK(Ac)SAPAPKK(Ac)G[pS]KKAVT
12,0.107,SGRGKGGKGLGKGGAKRHR (pS G Rme2s G Kac G G K G L G K G G A K R H R)
13,0,ARTKQTARKSTGGKAPRKQ (A Rme2s T Kme3 Q T A Rme2s K S T G G K A P R K Q)
14,0,PDPAK(Ac)SAPAPKKGSKKAVT
15,0.00403,ARTKQTARKSTGGKAPRKQ (A R T K Q T A Rme2s Kac pS T G G K A P R K Q)
16,0,A[Arg(Me2a)]T[Lys(Me)]QTA[Arg(Me2s)][Lys(Me2)]STGGKAPRKQ
17,0.00443,ARTKQTARKSTGGKAPRKQ (A Rme2s T Kme1 Q T A Rme2s Kme1 S T G G K A P R K Q)
18,0,A[Arg(Me2s)]TKQTARKSTGGKAPRKQ
19,0,ARTKQTA[Arg(Me2a)]K(Ac)S[pT]GGKAPRKQ
20,0,A[Arg(Me2a)]TK(Ac)QTA[Arg(Me2a)][Lys(Me)]STGGKAPRKQ
21,0.00915,ARTKQTARKSTGGKAPRKQ (A Rme2a T Kac Q T A R Kme2 S T G G K A P R K Q)
